{"source": "paper PMC4941050", "about": "“Extra-coding RNAs regulate neuronal DNA methylation dynamics”", "binders": {"B1": {"name": "ecDNA-1 unlabelled competitor (dsDNA)", "DNA 1": "GGGGACACGCCCTCTGTTCCCTTAT", "DNA 2": "ATAAGGGAACAGAGGGCGTGTCCCC"}}, "key": {"DNMT3a-CD [1]": {"target": "T1, DNMT3a-CD (mouse, UniProt O88508 608-908)", "T1 sequence (O88508 608-908)": "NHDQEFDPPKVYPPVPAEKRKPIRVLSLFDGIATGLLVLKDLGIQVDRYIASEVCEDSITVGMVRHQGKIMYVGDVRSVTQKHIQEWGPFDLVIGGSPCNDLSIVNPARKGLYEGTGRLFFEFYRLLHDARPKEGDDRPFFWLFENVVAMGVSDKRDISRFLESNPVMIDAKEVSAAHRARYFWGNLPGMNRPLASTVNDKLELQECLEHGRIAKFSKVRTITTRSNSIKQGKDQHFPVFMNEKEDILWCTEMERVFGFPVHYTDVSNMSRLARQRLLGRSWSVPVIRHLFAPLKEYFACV", "experiment": "EMSA; binding not impaired; 20 mM HEPES, 40 mM KCl, 1 mM EDTA, 0.2 mM DTT, 0.1 mg/ml BSA, 0.1% Tween-20, 20% glycerol; pH not stated; 1 h at 37 C; 1 nM probe; native 4-20% PAGE", "details": "protein: recombinant; label: 5'-Cy5.5; unstructured (predicted)"}, "DNMT3a-CD [2]": {"target": "T1, DNMT3a-CD", "experiment": "EMSA; binding not altered; 20 mM HEPES, 40 mM KCl, 1 mM EDTA, 0.2 mM DTT, 0.1 mg/ml BSA, 0.1% Tween-20, 20% glycerol; pH not stated; 1 h at 37 C; 1 nM probe; native 4-20% PAGE", "details": "protein: recombinant; label: 5'-Cy5.5; unstructured (predicted)"}, "DNMT3a-CD [3]": {"target": "T1, DNMT3a-CD", "experiment": "competition EMSA; vs 1 nM Cy5.5-ecRNA-1; competitor 1-100 nM; 20 mM HEPES, 40 mM KCl, 1 mM EDTA, 0.2 mM DTT, 0.1 mg/ml BSA, 0.1% Tween-20, 20% glycerol; pH not stated; 1 h at 37 C; 1 nM probe; native 4-20% PAGE", "details": "protein: recombinant; chain copies: 2; blunt"}, "[4]": {"target": "DNMT3a (in DNMT3a/DNMT3l complex);DNMT3l (human;human, UniProt Q9Y6K1;Q9UJW3 1-912;1-386, |)", "sequence (Q9Y6K1 whole entry, chain 1 of 2)": "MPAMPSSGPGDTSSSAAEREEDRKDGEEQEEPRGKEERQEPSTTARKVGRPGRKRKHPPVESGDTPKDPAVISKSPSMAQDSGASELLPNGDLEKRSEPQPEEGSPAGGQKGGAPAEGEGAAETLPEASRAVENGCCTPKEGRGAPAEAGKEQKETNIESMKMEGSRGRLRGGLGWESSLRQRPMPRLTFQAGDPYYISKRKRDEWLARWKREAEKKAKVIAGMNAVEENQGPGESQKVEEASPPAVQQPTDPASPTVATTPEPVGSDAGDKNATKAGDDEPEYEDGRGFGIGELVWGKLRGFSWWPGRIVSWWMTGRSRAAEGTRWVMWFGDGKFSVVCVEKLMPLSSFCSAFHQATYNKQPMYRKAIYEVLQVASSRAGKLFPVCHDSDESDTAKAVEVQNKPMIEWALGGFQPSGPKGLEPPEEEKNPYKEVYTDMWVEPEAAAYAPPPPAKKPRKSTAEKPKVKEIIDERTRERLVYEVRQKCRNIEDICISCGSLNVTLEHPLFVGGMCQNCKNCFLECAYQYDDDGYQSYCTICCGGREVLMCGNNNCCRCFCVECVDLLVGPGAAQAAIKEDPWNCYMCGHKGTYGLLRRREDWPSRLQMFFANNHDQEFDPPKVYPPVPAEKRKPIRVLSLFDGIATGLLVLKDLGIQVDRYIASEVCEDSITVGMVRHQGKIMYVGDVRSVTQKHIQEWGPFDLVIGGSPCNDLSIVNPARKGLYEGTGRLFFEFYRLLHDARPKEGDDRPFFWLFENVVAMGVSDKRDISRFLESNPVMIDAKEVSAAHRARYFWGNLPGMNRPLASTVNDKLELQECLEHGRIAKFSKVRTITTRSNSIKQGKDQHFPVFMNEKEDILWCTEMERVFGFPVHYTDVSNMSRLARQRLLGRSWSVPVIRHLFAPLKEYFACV", "sequence (Q9UJW3 whole entry, chain 2 of 2)": "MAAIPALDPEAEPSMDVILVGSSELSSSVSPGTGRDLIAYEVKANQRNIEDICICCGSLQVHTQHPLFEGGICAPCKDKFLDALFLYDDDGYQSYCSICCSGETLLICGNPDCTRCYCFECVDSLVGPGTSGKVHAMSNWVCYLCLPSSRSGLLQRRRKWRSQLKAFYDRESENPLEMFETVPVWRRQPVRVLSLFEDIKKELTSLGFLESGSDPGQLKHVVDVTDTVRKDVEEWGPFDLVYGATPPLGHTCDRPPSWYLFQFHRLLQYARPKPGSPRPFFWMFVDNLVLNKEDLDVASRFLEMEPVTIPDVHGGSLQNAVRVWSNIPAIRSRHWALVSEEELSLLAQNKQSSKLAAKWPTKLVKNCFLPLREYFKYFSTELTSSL", "experiment": "EMSA; 0.2 uM protein; 20 mM HEPES, 40 mM KCl, 1 mM EDTA, 0.2 mM DTT, 0.1 mg/ml BSA, 0.1% Tween-20, 20% glycerol; pH not stated; 1 h at 37 C; 1 nM probe; native 4-20% PAGE"}, "DNMT3a-CD [5]": {"target": "T1, DNMT3a-CD", "experiment": "EMSA; DNMT3a-CD 0.002-0.2 uM; value only in figure, text: low nanomolar, same as dsDNA (P=0.49); 20 mM HEPES, 40 mM KCl, 1 mM EDTA, 0.2 mM DTT, 0.1 mg/ml BSA, 0.1% Tween-20, 20% glycerol; pH not stated; 1 h at 37 C; 1 nM probe; native 4-20% PAGE", "details": "protein: recombinant; label: 5'-Cy5.5; predicted stem-loop"}, "DNMT3a-CD [6]": {"target": "T1, DNMT3a-CD", "experiment": "EMSA; 0.2 uM protein; complete binding; 20 mM HEPES, 40 mM KCl, 1 mM EDTA, 0.2 mM DTT, 0.1 mg/ml BSA, 0.1% Tween-20, 20% glycerol; pH not stated; 1 h at 37 C; 1 nM probe; native 4-20% PAGE", "details": "protein: recombinant; label: 5'-Cy5.5; predicted stem-loop"}}}
{"binder": "GUCGACACGCCCUCUGUUCCGUUAG (ssRNA)", "note": "[mutant ecRNA-1]", "values": [{"measurement": "binding result", "setting": "DNMT3a-CD [1]", "value": "binds"}]}
{"binder": "GAUGAUCCUGCCUUGAAGUGACGCU (ssRNA)", "note": "[mutant ecRNA-2]", "values": [{"measurement": "binding result", "setting": "DNMT3a-CD [2]", "value": "binds"}]}
{"binder": "B1", "values": [{"measurement": "IC50", "setting": "DNMT3a-CD [3]", "value": "> 20 fold excess over 1 nM ecRNA-1"}]}
{"binder": "GGGGACACGCCCUCUGUUCCCUUAU (ssRNA)", "note": "[ecRNA-1]", "values": [{"measurement": "binding result", "setting": "[4]", "value": "binds"}, {"measurement": "binding result", "setting": "DNMT3a-CD [5]", "value": "binds"}]}
{"binder": "GUCUGUGCACCGUGUGCAUAUACAG (ssRNA)", "note": "[ecRNA-2]", "values": [{"measurement": "binding result", "setting": "[4]", "value": "binds"}, {"measurement": "binding result", "setting": "DNMT3a-CD [6]", "value": "binds"}]}
